# From FireProtDB (doi:10.1016/0167-4838(95)00124-d)
# Conditions: Rattus norvegicus, pH 7.2, Absorbance, MOPS 0.1 M, reversible: Yes; for ddG of mutation (higher = less stable) / unfolding free energy: 25 °C, Urea; for Tm / change of melting temperature, mutant - wild type (higher = more stable): Thermal
# Cytochrome c, somatic P31A|Y68F, P62898 P31A Y68F, sequence (P62898 whole entry P31A/Y68F): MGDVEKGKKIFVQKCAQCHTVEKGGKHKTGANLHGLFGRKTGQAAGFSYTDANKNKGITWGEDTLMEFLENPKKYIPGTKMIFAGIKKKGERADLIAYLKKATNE
# Cytochrome c, somatic H27V|H34F, P62898 H27V H34F, sequence (P62898 whole entry H27V/H34F): as the sequence (P62898 whole entry P31A/Y68F) above, with H27V, A31P, H34F, F68Y counted along it
# Cytochrome c, somatic H27V, P62898, sequence (P62898 whole entry H27V): as the sequence (P62898 whole entry P31A/Y68F) above, with H27V, A31P, F68Y counted along it
# Cytochrome c, somatic H34F, P62898, sequence (P62898 whole entry H34F): as the sequence (P62898 whole entry P31A/Y68F) above, with A31P, H34F, F68Y counted along it
# Cytochrome c, somatic Y68F, P62898, sequence (P62898 whole entry Y68F): as the sequence (P62898 whole entry P31A/Y68F) above, with A31P counted along it
# Cytochrome c, somatic P31A, P62898, sequence (P62898 whole entry P31A): as the sequence (P62898 whole entry P31A/Y68F) above, with F68Y counted along it
# Cytochrome c, somatic N53I, P62898, sequence (P62898 whole entry N53I): as the sequence (P62898 whole entry P31A/Y68F) above, with A31P, N53I, F68Y counted along it
# Cytochrome c, somatic H27V|N53I, P62898 H27V N53I, sequence (P62898 whole entry H27V/N53I): as the sequence (P62898 whole entry P31A/Y68F) above, with H27V, A31P, N53I, F68Y counted along it
# Cytochrome c, somatic wild type, P62898, sequence (P62898 whole entry): as the sequence (P62898 whole entry P31A/Y68F) above, with A31P, F68Y counted along it
# Cytochrome c, somatic P31V, P62898, sequence (P62898 whole entry P31V): as the sequence (P62898 whole entry P31A/Y68F) above, with A31V, F68Y counted along it
Substance,ddG of mutation (higher = less stable) (structure 1I5T),unfolding free energy (structure 1I5T),Tm (structure 1I5T),"change of melting temperature, mutant - wild type (higher = more stable) (structure 1I5T)",unfolding free energy,Tm
"Cytochrome c, somatic H27V, P62898",15.8 kJ/mol,23.9 kJ/mol,50 °C,-10 °C,,
"Cytochrome c, somatic H27V|H34F, P62898 H27V H34F",9 kJ/mol,30.8 kJ/mol,53 °C,-7 °C,,
"Cytochrome c, somatic H27V|N53I, P62898 H27V N53I",7.78 kJ/mol,32 kJ/mol,,,,
"Cytochrome c, somatic H34F, P62898",-2.8 kJ/mol,42.6 kJ/mol,69 °C,,,
"Cytochrome c, somatic N53I, P62898",,26.6 kJ/mol,80 °C,20 °C,,
"Cytochrome c, somatic P31A, P62898",24 kJ/mol,15.7 kJ/mol,51 °C,-9 °C,,
"Cytochrome c, somatic P31A|Y68F, P62898 P31A Y68F",,28.2 kJ/mol,62 °C,2 °C,,
"Cytochrome c, somatic P31V, P62898",,,49 °C,-11 °C,,
"Cytochrome c, somatic Y68F, P62898",,30.1 kJ/mol,90 °C,30 °C,,
"Cytochrome c, somatic wild type, P62898",,,,,39.7 kJ/mol,60 °C
